According to PMC13408441, “Molecular regulation and physiological role of GOLPH3-mediated Golgi retention” (Nature Communications, 2026):

Tests used:
[1] = SEC-MALS of GOLPH3 constructs; format: physicochemical, human; conditions: 12 mg/mL, 250 mM NaCl, 50 mM Tris pH 8.0, 1 mM TCEP
Experimental: (§1) Supplemental Material for Theodoropoulou, Nasrallah, et al 2026 buffer. Pooled fractions were concentrated to the required concentration using a MWCO concentrator (Millipore) with a cutoff of 10 kDa.
(§2) Size exclusion chromatography coupled to multi-angle light scattering
(§3) The molecular weights of the tested constructs were determined by size exclusion chromatography coupled to multi-angle light scattering (SEC-MALS). The mass measurements were performed on a UltiMate3000 HPLC system equipped with a 3 angles miniDAWN TREOS static light scattering detector (Wyatt Technology). The sample volumes of 5−10 μl at a concentration of 12 mg/mL, were applied to a Superdex 200 5/150 GL column (Cytiva) previously equilibrated with 250 mM NaCl, 50 mM Tris pH 8.0, 1 mM TCEP at a flow rate of 0.08 mL/min. The data were analyzed using the ASTRA 6.1 software package (Wyatt technology), using the absorbance at 280 nm and the theoretical extinction coefficient for concentration measurements.
(§4) Nuclear Magnetic Resonance (NMR) Spectroscopy
All proteins used for NMR experiments were designed on the GOLPH3-4G background due to its higher stability and solubility. Recombinant proteins were prepared with the isotope enrichment scheme appropriate for each experiment (i.e. 15N-only or 15N, 13C) in 20 mM MES buffer pH 6.5 with 250 mM NaCl and 10% 2H2O. Lower salt, even by 10%, yielded much degraded spectra. […]

GOLPH3-4G = target: T1, GOLPH3-4G (Homo sapiens, UniProt Q9H4A6, F194G/F197G/L195G/L196G); assay: NMR 1H-15N HSQC titration of LCS tail peptide into 15N-labeled GOLPH3-4G; format: binding; conditions: final LCS titration point, MES pH 6.5, 250 mM NaCl, 308K
T1 construct: 10xHistidine tag (N, cleaved yes); Twin-Strep-tag (N, cleaved yes); made in house; host or cells: E. coli BL21(DE3)
Experimental: as §1, §2, §3, §4
All proteins used for NMR experiments were designed on the GOLPH3-4G background due […]
Recombinant proteins were prepared with the isotope enrichment scheme appropriate for each experiment (i.e. 15N-only or 15N, 13C) in 20 mM MES […]
buffer pH 6.5 with 250 mM NaCl and 10% 2H2O.
Protein concentrations were around 300 µM for all NMR experiments, […]
spectrometer equipped with a CPTC 1H, 13C, 15N 5 mm cryoprobe and an Avance Neo console.
CA, and C) and CB resonances were assigned using a standard procedure based on conventional 3D HNCA, HN(CO)CA, HNCO, HN(CA)CO, CBCA(CO)NH and HNCACB spectra. All spectra were acquired and processed using Bruker’s Topspin 4.0 software.
Backbone assignments were obtained through manual spectral analysis assisted by the […]
spectra acquired on single-point mutants. […]
residues are provided in Table S1 and deposited in the BMRB under ID 53516.

[2] = CD secondary structure of GOLPH3 proteins (BestSel fits); format: physicochemical, human; conditions: 10 μM, 100 mM NaCl, 50 mM Tris pH 7.4, 1 mM TCEP, 20 °C
Experimental: (§5) Supplemental Material for Theodoropoulou, Nasrallah, et al 2026
Isothermal titration calorimetry […]
(§6) Circular Dichroism Spectroscopy
(§7) Circular Dichroism Spectra of GOLPH3 proteins (at 10 μM in 100 mM NaCl, 50 mM Tris pH 7.4 and 1 mM TCEP) were collected with a Chirascan V100 (AppliedPhotophysics), using a 1 mm path length cuvette, at 20 °C, in the 200-260 nm range. Thermal denaturation experiments […]
(§8) every 1 °C, with a temperature ramp speed of 1 °C/min and an equilibration time of […]
(§9) Table S2: Fits of CD spectra to fractions of secondary structure for Golph3 WT and various mutants of it, carried out with the BestSel server

[3] = CD thermal denaturation of GOLPH3 proteins; format: physicochemical, human; conditions: CD at 207 nm, 20 to 95 °C at 1 °C/min, 10 μM protein, 100 mM NaCl, 50 mM Tris pH 7.4, 1 mM TCEP
Experimental: as §5
Isothermal titration calorimetry
Isothermal titration calorimetry (ITC) experiments were performed on a MicroCal PEAQ-ITC (Malvern Panalytical), with GOLPH3 variants being in a buffer containing 250 mM NaCl, 50 mM Tris pH 8.0 and 1 mM TCEP. LCS peptides were synthesised and delivered as lyophilised powder (Genscript). The peptides were dissolved in the protein buffer and their concentrations were calculated based upon their absorbance at 280 nm and their corresponding molar extinction coefficient. Experiments consisted of titrations of a single 0.4 µL injection followed […]
GOLPH3 proteins at a 100 μM concentration. Experiments were performed at 25 °C in triplicate (n = 3), with injection duration of 4 s, injection spacing of 150 s, stir speed of 750 rpm, and reference power of 7 μcal/s. Data were processed and plotted using MicroCal PEAQ‐ITC Analysis Software and fitted to a one‐site binding model.
as §6, §7, §8, §9

B1: GOLPH3-4G: mutant F194G/L195G/L196G/F197G with improved solubility (protein)
chain: MTSLTQRSSGLVQRRTEASRNAADKERAAGGGAGSSEDDAQSRRDEQDDDDKGDSKETRLTLMEEVLLLGLKDREGYTSFWNDCISSGLRGCMLIELALRGRLQLEACGMRRKSLLTRKVICKSDAPTGDVLLDEALKHVKETQPPETVQNWIELLSGETWNPLKLHYQLRNVRERLAKNLVEKGVLTTEKQNGGGGDMTTHPLTNNNIKQRLIKKVQEAVLDKWVNDPHRMDRRLLALIYLAHASDVLENAFAPLLDEQYDLATKRVRQLLDLDPEVECLKANTNEVLWAVVAAFTK
- oligomeric state [1]: monomeric
- chemical shift perturbation, A245 (GOLPH3-4G): 0.023 p.p.m
- chemical shift perturbation, A294 (GOLPH3-4G): 0.02332 p.p.m
- chemical shift perturbation, D247 (GOLPH3-4G): 0.05478 p.p.m
- chemical shift perturbation, D258 (GOLPH3-4G): 0.09666 p.p.m
- chemical shift perturbation, E259 (GOLPH3-4G): 0.06997 p.p.m
- chemical shift perturbation, H202 (GOLPH3-4G): 0 p.p.m
- chemical shift perturbation, K266 (GOLPH3-4G): 0.1082 p.p.m
- chemical shift perturbation, K298 (GOLPH3-4G): 0.09652 p.p.m
- chemical shift perturbation, Q260 (GOLPH3-4G): 0.1208 p.p.m
- chemical shift perturbation, S246 (GOLPH3-4G): 0.08006 p.p.m
- chemical shift perturbation, T200 (GOLPH3-4G): 0 p.p.m
- chemical shift perturbation, T201 (GOLPH3-4G): 0 p.p.m
- chemical shift perturbation, T265 (GOLPH3-4G): 0.1157 p.p.m
- chemical shift perturbation, T297 (GOLPH3-4G): 0.1247 p.p.m
- chemical shift perturbation, Y261 (GOLPH3-4G): 0.1039 p.p.m
- % alpha [2]: 36%
- % beta parallel [2]: 0%
- % beta-antiparallel [2]: 13%
- % others [2]: 36%
- % turn [2]: 15%
- Tm / melting temperature [3]: 55 °C
